The nature of the series: amyloid nucleation score (Sup35N fusion, yeast selection) (log enrichment); library NNK3; higher = more nucleation; inactive = no reads after selection. The method in brief: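 Nucleation score is defined as the DiMSum log enrichment of output over input reads, with centring on the mode score of non-aggregating sequences. A minimum of 100 input reads was required for each sequence. Reads came from Illumina sequencing of plasmid inserts from psi-negative yeast expressing Sup35N fused to peptides of 20 random codons, induced with 100 μM copper sulfate for 24 hours and grown 7 days at 30°C on medium lacking adenine and uracil.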

± gives the uncertainty stated by the source.

As for EPSGNM, the amyloid nucleation score result is “inactive”. As for FFRRSRYEYKSFGVNNVMNG, the amyloid nucleation score entry is “inactive”.

Take VLVSVILYIYYDDCFYSWSF: the amyloid nucleation score result was “inactive”. EYHDALEYVVGDKAIFWSGD: the amyloid nucleation score result was “inactive”.

For the substance RNKSSNFREHPVTSRITCRS, the amyloid nucleation score entry was “inactive”. Consider MLFYCN, for which the amyloid nucleation score result is “inactive”.

For the substance DGAVFRFNMGHYKYSLVEVM, the amyloid nucleation score result was “inactive”. LDAYDSLLFL: the amyloid nucleation score entry is “inactive”.

As to YAGFCPRGRSPKRG, the amyloid nucleation score entry is “inactive”. LTHRAVGLSNVNTPPSFCMR showed an amyloid nucleation score of 0.842 ± 0.2. NNCTSTRSMVVGEYRKKGAL yielded an amyloid nucleation score of -0.46 ± 0.84. Consider WVLDQRNSLSKCKLG, for which the amyloid nucleation score result is “inactive”. Then AMTRCGECGHRMGKASAGMW, with “inactive”. For NLDRLYI the value was “inactive”; for GPIYWLLKGQNFESRVDTNL, “inactive”; for FVYWLILYLRRVAERR, “inactive”. Then PGDFISDEAMDSNVYFRLQS, with -0.693 ± 0.8.

For YVFGKLSAFFFVRFNLQGLL, the amyloid nucleation score result is “inactive”. Consider VTLLWFISPFMMHWWVQRNG, for which the amyloid nucleation score is -0.191 ± 1.

Turning to RYLDCFVVVLVSDFMLRYVS, the amyloid nucleation score result was “inactive”.

Substance DCFDFIEETGTNKAFRVWGI gave an amyloid nucleation score of 0.283 ± 0.24.

As to LFVRVCSANYFSWEYDSRVN, the amyloid nucleation score entry was “inactive”. Regarding RGSMRPPSVSQMQCRYKDRF, the amyloid nucleation score is -0.663 ± 1.1. Take YQWNIMLKIDCSIDVVVVSN: the amyloid nucleation score was found to be 0.827 ± 0.27. Take THSGQEEWLVNKDAS: the amyloid nucleation score entry is “inactive”. Take QGVVV: the amyloid nucleation score entry was “inactive”. On to LPNRYVMINGCIRQFAKCDI, for which the amyloid nucleation score was determined as 1.58 ± 0.08. Turning to RRLPPIRCSHNLNSVPQD, the amyloid nucleation score entry is “inactive”. For LRPVRYRLCVRFNWMCVRCK the value was -0.582 ± 0.95; for IERLTCIYRSFESHLAGFVG, “inactive”; for TWIMALLMILFNKVFVSSTR, “inactive”. Consider AHGEMRAVKPINFKACWRCL, for which the amyloid nucleation score entry was “inactive”. Then VPGFGVLACCGQVLLFSHLF, with “inactive”; and LTICAFVVYVFIYKYKMGVM, with “inactive”. Then RYDCRQPIAEFVVWAV, with “inactive”; and ACTRYCWHYFVNIVWCESDF, with “inactive”. For LFRFGI, the amyloid nucleation score was -0.005 ± 0.22. As for RLTGEMRRCVVHGKRSHRVF, the amyloid nucleation score result is “inactive”. In the case of SLGSCTMFSFSIFWISVQSV, the amyloid nucleation score worked out at 1.34 ± 0.084.

As to FSFTIDAYRHRTTSVLMRMS, the amyloid nucleation score entry is “inactive”.

On to KNCIGRFW, for which the amyloid nucleation score entry is “inactive”.

As for WLWTLALNFTYKYFMCGKYK, the amyloid nucleation score result was “inactive”. As to ELGPYLNSLVAHFSRLY, the amyloid nucleation score entry is “inactive”. Consider SPSGSIVAVTPLIWR, for which the amyloid nucleation score entry was “inactive”. FKSLHTGVQRNTLCARSRTF: the amyloid nucleation score result is “inactive”. Consider IRTARNTEETMVVACMTVGV, for which the amyloid nucleation score entry is “inactive”. Then YLPFFEWRVQGRVFEVSMYY, with “inactive”; and SGWIYMERIAS, with “inactive”.

Regarding DQVAYRGKSVYSYKCKTRWG, the amyloid nucleation score result was “inactive”. For the substance YYYAFEFPFSYHERSALYYC, the amyloid nucleation score entry is “inactive”.

Turning to DTDFIFVNIA, the amyloid nucleation score entry was “inactive”.

VGLFASPDRRYRMIAFVPGL: the amyloid nucleation score entry was “inactive”.

In turn, IYIGQFSLVVCVIIDIDI displayed an amyloid nucleation score of 1.75 ± 0.11. For GHLMGETTY the value was “inactive”; for SPGLMRYRRTPLAKSLPWMK, “inactive”; for IVTLCSIFDFAFVVTASTMG, 1.13 ± 0.16. With IKFSYKCS, the amyloid nucleation score result is “inactive”. As to MSKYVGRIGCLWGNSASRAR, the amyloid nucleation score entry is “inactive”. For QNRFDLPGMSQRSTHDRAPS, the amyloid nucleation score is -0.03 ± 0.73. Regarding ADSLRCVSWFSD, the amyloid nucleation score result was “inactive”. For the substance LIGSYICYAVGLMVTLNNWW, the amyloid nucleation score entry was “inactive”.

As for MWSIVSGDKVGSSPVLGGCV, the amyloid nucleation score result is “inactive”.

For RWLPMSNVAGGQKRKMLASL, the amyloid nucleation score entry is “inactive”.

As to MICHDLRSFIM, the amyloid nucleation score result is “inactive”. As for DNCFRKWT, the amyloid nucleation score result was “inactive”.

As for SACVGFMGPRNIRL, the amyloid nucleation score entry is “inactive”. Consider AYIKWNVDCRLKTHNDGYFL, for which the amyloid nucleation score result is “inactive”. As to FADYLMKPCRMCLLRDPVYS, the amyloid nucleation score entry is “inactive”. For the substance HLTIVDWSPRESSSWIMRFT, the amyloid nucleation score entry was “inactive”. With LSYSAGEIRCVGSCWANESL, the amyloid nucleation score result was “inactive”. Take RHSLMRDYYNFLMLDCTE: the amyloid nucleation score entry was “inactive”.

For the substance NRPLNIAAVLY, the amyloid nucleation score result is “inactive”. Consider SQFDEMLFSKMEPWQVLFTM, for which the amyloid nucleation score result is “inactive”. Regarding HSVFISLGMFRPVTSYL, the amyloid nucleation score entry was “inactive”. For the substance VSTSFDFKWNLSLGIWFMVI, the amyloid nucleation score result is “inactive”. Consider NSSCSCTCLLSGHRHTP, for which the amyloid nucleation score stood at 0.829 ± 0.24. On to YSSSC, for which the amyloid nucleation score result was “inactive”. Regarding KFMIVVKCSM, the amyloid nucleation score is 0.745 ± 0.2. As to WIRIVRELGRSVR, the amyloid nucleation score entry is “inactive”.

Consider NYAYTVMGGTIYRLWGRVMR, for which the amyloid nucleation score entry is “inactive”. Regarding IDMFGSWFSCILGEKNQLGS, the amyloid nucleation score result is “inactive”. For YAVYRTPFVSKLAMFQLVQ, the amyloid nucleation score was -1.04 ± 1.9.

As for GVSRLETGNFAASPMMHYKG, the amyloid nucleation score entry is “inactive”.

For the substance LEFRYPAMWLKFSLYVWTLI, the amyloid nucleation score result was “inactive”. Then MCKGR, with “inactive”; and DPVIYRCSLVLLYSERSLPY, with “inactive”; and GNHQSRYSFVP, with “inactive”. As to KMKSAIIPVECGSR, the amyloid nucleation score entry was “inactive”. For KIRIGW the value was “inactive”; for LVVYYYLCACNYGARRFSWC, 1.15 ± 0.13; for RSFSNSDRMVSNLQFCYYFG, 2.77 ± 0.053. Consider NRNFYGL, for which the amyloid nucleation score result is “inactive”. Regarding RVLSCECKVGRKWICTELFV, the amyloid nucleation score entry was “inactive”. Turning to MSSNFTRS, the amyloid nucleation score entry was “inactive”.

For the substance FQGSNCP, the amyloid nucleation score entry is “inactive”. Regarding HKLYEWACSRSTALNYIGQI, the amyloid nucleation score entry was “inactive”. In the case of LFYGNW, the amyloid nucleation score entry is “inactive”.

The record behind these values is the supplement of paper PMC12042874.
